From patent US20240182556A1 (OPSIDIO, published 2024)

Experiments:
[1] = target: T1, PE9413, C-terminal biotinylated peptide mapping on Exon6 of the SCF molecule (SCF248) (C-terminal biotin); assay: yeast-displayed scFv, flow cytometry titration of biotinylated peptide
T1 construct: also called C-terminal biotinylated PE9413; C-ter PE9413
T1 peptide: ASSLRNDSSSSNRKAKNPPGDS

[2] = target: T1, PE9413, C-terminal biotinylated peptide …; assay: yeast-displayed scFv, flow cytometry titration of biotinylated peptide (FIG. 16D)
Procedure: Yeast display methods were conducted as described by Ferrara et al. Briefly, cells were induced in induction media overnight at 20° C. 10⁵ induced cells were washed twice with wash buffer (PBS supplemented with 0.5% BSA) and incubated at room temperature with the biotinylated antigen diluted in PBS. To assess binding of the scFv, a C-terminal biotinylated peptide mapping on Exon6 of the SCF molecule was used (referred to herein as “PE9413”). […] The induced yeast population was stained with biotinylated PE9413 at different concentrations ranging from 50 nM to 2 μM (0 nM, 50 nM, 100 nM, 250 nM, 500 nM, 750 nM, 1000 nM, or 2000 nM). Volumes and incubation times were carefully adjusted according to parameters described in [3]. After the incubation with the target peptide, the yeast cells were washed twice with cold wash buffer and subsequently incubated at 4° C. for an additional 30 minutes with fluorescently labelled streptavidin (Streptavidin-AlexaFlu633), to detect binding of the biotinylated PE9413, and with the labelled anti-SV5 (anti-SV5-PE), to detect the scFv display levels on yeast cells. Following 2 washes with cold yeast wash buffer, the cells were resuspended in cold PBS and analyzed in the flow cytometer (FIG. 1).
The FACS sorted population was sorted kinetically to find clones with an improved Koff compared to the parenteral scFv. […]

[3] = target: T1, PE9413, C-terminal biotinylated peptide …; assay: yeast-displayed scFv, flow cytometry titration of biotinylated peptide
Procedure: (§1) The binding of the selected 48 clones described above to 170 nM of C-terminal biotinylated PE9413 was evaluated. The 24 clones with the highest binding signal were further evaluated for binding affinity. Each clone was incubated with increasing amounts of biotinylated PE9413, and stained with a fluorescently labeled anti-streptavidin antibody. Binding of the clone to PE9413 was analyzed by flow cytometry. A plot of concentration of PE9413 versus the median fluorescent signal of the yeast cell population that bound to PE9413 was used to estimate the binding affinity (KD) of each clone to C-terminal biotinylated PE9413.

[4] = target: T1, PE9413, C-terminal biotinylated peptide …; assay: as above
Procedure: as §1, with “PE9413. […]” for “PE9413.”

[5] = target: T2, N-terminal biotinylated PE9413 (not fully specified; N-terminal biotin); assay: yeast-displayed scFv, flow cytometry titration of N-terminal biotinylated peptide
T2 construct: also called PE9411; N-ter PE9413
T2 peptide: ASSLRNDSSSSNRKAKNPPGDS
Procedure: The affinity of the 12 best clones for the N-terminal biotinylated target peptide […] was also evaluated. Each clone was incubated with increasing amounts of N-terminal biotinylated PE9413, and stained with a fluorescently labeled anti-streptavidin antibody. Binding of the clone to N-terminal biotinylated PE9413 was analyzed by flow cytometry. A plot of concentration of PE9413 versus the median fluorescent signal of the yeast cell population that bound to PE9413 was used to estimate the binding affinity (KD) of each clone to N-terminal biotinylated PE9413. The tested clones were confirmed to have improved affinities over the parental antibody 5H10 against the target sequence PE9413, regardless of the biotinylation modification, as reported in Table A3 and FIG. 12.

Row | Binder | Kd [1] | Kd [2] | Kd [3] | Kd [4] | Kd [5]
1 | parental humanized 5H10 VK3/VH1 scFv (VH-linker-VL-SV5tag) displayed on yeast (scFv, V domains shown, also called parental scFv; parental antibody; not shown: linker; SV5 tag) VH: QVQLVQSGAELKKPGSSVKISCKSSGYAFSSYWMNWVKQRPGQGLEWIGQIYPGDGDTHYNGKFKGKATLTADKSTSTAYMELSSLTSEDSAVYFCSSSNWVGSYWGQGTLVTVSS VL: DVVMTQSPLSLPVTLGQPASISCKSSQSLLESDGKTYLNWLQQRPGQSPRRLIYLVSRLDSGVPDRFSGSGSGTDFTLKISRVEAEDVGVYYCWQGTHLPQTFGGGTKVEIK | 174 nM | 232 nM |  |  | 
2 | F54P scFv displayed on yeast (scFv, V domains shown, Aga2-anchored, VH-VL orientation; not shown: linker; SV5 tag) VH: QVQLVQSGAELKKPGSSVKISCKSSGYAFSSQWMNWVKQRPGQGLEWIGQIYPEDGDTHMNGKFKTKATLTADKSTSTAYMELSSLTSEDSAVYFCSSSNWVGSYWGQGTLVTVSS VL: DVVMTQSPLSLPVTLGQPASISCKSSQSLLEEDGNTYLNWLQQRPGQSPRRLIYLVDRLDSGVPDRFSGSGSGTDFTLKISRVEAEDVGVYYCWQGTDLPQTFGGGTKVEIK |  |  | 4.09 nM | 4.09 nM | 5.66 nM
3 | H74P scFv displayed on yeast (scFv, V domains shown, Aga2-anchored, VH-VL orientation; not shown: linker; SV5 tag) VH: QVQLVQSGAELKKPGSSVKISCKSSGYAFSSQWMNWVKQRPGQGLEWIGQIYPEDGDTHYNGKFKGKATLTADKSTSTAYMELSSLTSEDSAVYFCSSSNWVGSYWGQGTLVTVSS VL: DVVMTQSPLSLPVTLGQPASISCKSSQSLLEEDGNTYLNWLQQRPGQSPRRLIYLVDRLDLGVPDRFSGSGSGTDFTLKISRVEAEDVGVYYCWQGSHLPQTFGGGTKVEIK |  |  | 3.84 nM | 3.84 nM | 4.9 nM
4 | D14P scFv displayed on yeast (scFv, V domains shown, Aga2-anchored, VH-VL orientation; not shown: linker; SV5 tag) VH: QVQLVQSGAELKKPGSSVKISCKSSGYAFSSQWMNWVKQRPGQGLEWIGQIYPGDDDTHYNDKFKGKATLTADKSTSTAYMELSSLTSEDSAVYFCSSSNWVGSYWGQGTLVTVSS VL: DVVMTQSPLSLPVTLGQPASISCKSSQSLLESDGNTYLNWLQQRPGQSPRRLIYLVDRLDLGVPDRFSGSGSGTDFTLKISRVEAEDVGVYYCWQGTDLPQTFGGGTKVEIK |  |  | 4.39 nM | 4.39 nM | 5.38 nM
5 | H83P scFv displayed on yeast (scFv, V domains shown, Aga2-anchored, VH-VL orientation; not shown: linker; SV5 tag) VH: QVQLVQSGAELKKPGSSVKISCKSSGYAFSSQWMNWVKQRPGQGLEWIGQIYPGDGDIHYNDKFKGKATLTADKSTSTAYMELSSLTSEDSAVYFCSSSNWVGSYWGQGTLVTVSS VL: DVVMTQSPLSLPVTLGQPASISCKSSQSLLESDGNTYLNWLQQRPGQSPRRLIYLVDRLDSGVPDRFSGSGSGTDFTLKISRVEAEDVGVYYCWQGTDLPQTFGGGTKVEIK |  |  | 4.08 nM | 4.08 nM | 5.3 nM
6 | B124P scFv displayed on yeast (scFv, V domains shown, Aga2-anchored, VH-VL orientation; not shown: linker; SV5 tag) VH: QVQLVQSGAELKKPGSSVKISCKSSGYAFSSNWMNWVKQRPGQGLEWIGQIYPEDGDTHYNDKFKGKATLTADKSTSTAYMELSSLTSEDSAVYFCSSSNWVGSYWGQGTLVTVSS VL: DVVMTQSPLSLPVTLGQPASISCKSSQSLLEQDGNTYLNWLQQRPGQSPRRLIYLVDRLDSGVPDRFSGSGSGTDFTLKISRVEAEDVGVYYCWQGTDLPQTFGGGTKVEIK |  |  | 3.82 nM | 3.82 nM | 5 nM
7 | D44P scFv displayed on yeast (scFv, V domains shown, Aga2-anchored, VH-VL orientation; not shown: linker; SV5 tag) VH: QVQLVQSGAELKKPGSSVKISCKSSGYAFSSQWMNWVKQRPGQGLEWIGQIYPEDGDIHYNGKFKGKATLTADKSTSTAYMELSSLTSEDSAVYFCSSSNWVGSYWGQGTLVTVSS VL: DVVMTQSPLSLPVTLGQPASISCKSSQSLLEEDGNTYLNWLQQRPGQSPRRLIYLVDRLDSGVPDRFSGSGSGTDFTLKISRVEAEDVGVYYCWQGSHLPQTFGGGTKVEIK |  |  | 4.18 nM | 4.18 nM | 4.61 nM
